Test: yeast display, Sf9 membrane polyspecificity reagent, FACS + sequencing; frameworks hold sequencing errors
Procedure, shortened: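 A synthetic nanobody library was expressed on Saccharomyces cerevisiae BJ5465 by galactose induction for 36–48 hours. The library was stained for 1 hour at 4 °C with 10% biotinylated, detergent-solubilized Sf9 membrane reagent and enriched with streptavidin microbeads before FACS. Low and high (top ~1%) gates were set on anti-HA fluorescence for expression and streptavidin fluorescence for reagent binding, and each polyreactivity label reflects the gate of origin.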

Sequence | polyreactivity (PSR sort gate)
QVQLVESGGGLVQAGGSLRLSCAASGRTFYGNAMGWYRQAPGKERELVAAITSGGGSTRYADSVKGRFTISRDNAKNSVYLQMNSLKPEDTAVYYCAALYWYEYTYLEYDYWGQGTQVTVSS | high polyreactivity
QVQLVESGGGLVQAGGSLRLSCAASGRTFYGNAMGWYRQAPGKERELVAAITSGGGSTRYADSVKGRFTISRDNAKNTVYLQMNSLKPEDTAVYYCNATLGNFGYRRYSGHTRYYYWGQGTQVTVSS | high polyreactivity
QVQLVESGGGLVQAGGSLRLSCAASGRTFYGYAMGWYRQAPGKERELVAAISRRGGSTNYADSVKGRFTISRDNAQTTVYLQMNSLKPEDTAVYYCNKVVPHKPPTMDYWGQGTQVTVSS | high polyreactivity
QVQLVESGGGLVQAGGSLRLSCAASGRTFYGYAMGWYRQAPGKERELVAGITFRGSSTYYADSVKGRFTISRDNAKNTVYLQMNSLKPEDTAVYYCNVPYGNSHVGYDYWGQGTQVTVSS | high polyreactivity
QVQLVESGGGLVQAGGSLRLSCAASGRTFYGYAMGWYRQAPGKERELVASISRDGSTNYADSVKGRFTISRDNAKNTVYLQMNSLKPEDTAVYYCAGDIWYYRYPIYYYSYDYWGQGTQVTVSS | low polyreactivity
QVQLVESGGGLVQAGGSLRLSCAASGRTFYGYTMGWYRQAPGKERELDAAIRTSGGSTYADSVKGRFTISRDNAKNTVYLQMNSLKPEDTAVYYCAAPRVVYYGTAPAYRYDYWGQGTQVTVSS | high polyreactivity
QVQLVESGGGLVQAGGSLRLSCAASGRTFYIYAMGWYRQAPGKERELVAAITWRGGRTYYADSVKGRFTISRDNAKNTVYLQMNSLKPEDTAVYYCAARTGQGPLYNHWGQGTQVTVSS | high polyreactivity
QVQLVESGGGLVQAGGSLRLSCAASGRTFYIYAMGWYRQAPGTERELVAAITGCGGSTYYADSVKGRFTISRDNAKNTVYLQMNSLKPEDTAVYYCAAGFYGDGYTQGYGYWGQGTQVTVSS | low polyreactivity
QVQLVESGGGLVQAGGSLRLSCAASGRTFYKNAMGWYRQAPGKERELVAAISSRGGRTTYADSVKGRFTISRDNAKNTVYLQMNSLKPEDTAVYYCATDWAQVYHGTTKYYYWGQGTQVTVSS | high polyreactivity
QVQLVESGGGLVQAGGSLRLSCAASGRTFYKNTMGWYRQAPGKERELVAGISQRGGRTYYADSVKGRFTISRDNAKNTVYLQMNSLKPEDTAVYYCAADRYSYGSNGYPRFEYYYWGQGTQVTVSS | high polyreactivity
QVQLVESGGGLVQAGGSLRLSCAASGRTFYKNTMGWYRQAPGKERELVATITRRGGTTYYADSVKGRFTISRDKAKNTVYLQMNSLKPEDTAVYYCAKDASTEKYDYWGQGTQVTVSS | low polyreactivity
QVQLVESGGGLVQAGGSLRLSCAASGRTFYKYALGWYRQAPGKERELVAAITSGGSTNYADSVKGRFTISRDNAKYTVYLQMNSLKPEDTAVYYCNASFEENFPFGDYDYWGQGTQVTGSS | high polyreactivity
QVQLVESGGGLVQAGGSLRLSCAASGRTFYKYGMGWYRQAPGKERELVAAISWRTTSTYYADSVKGRFTISRDNAKNTVYLQMNSLKPEDTAVYYCNARRYLYFYGRGAQELDYWGQGTQVTVSS | high polyreactivity
QVQLVESGGGLVQAGGSLRLSCAASGRTFYKYGMGWYRQAPGKERELVARINSNGGSTYYADSVKGRFTISRDNAKNTVYLQMNSLKPEDTAVYYCAKRGSYRTKPASEYDSWGQGTQVTVSS | low polyreactivity
QVQLVESGGGLVQAGGSLRLSCAASGRTFYLNAMGWYRQAPGKEREFVARITWSGGSTYYADSVKGRFTISRDNAKNTVYLQMNSLKPEDTAVYYCIRLSSYHMDYWGQGTQVTVSS | high polyreactivity
QVQLVESGGGLVQAGGSLRLSCAASGRTFYLYAMGWYRQAPGKERELVAAITSGGSTYYADSVKGRFTISRDNAKNTVYLQMNSLKPEDTAVYYCAKRPVSVGYGYPRVSWGYDYWGQGTQVTVSS | high polyreactivity
QVQLVESGGGLVQAGGSLRLSCAASGRTFYLYGMGWYRQAPGKERELVAAITLSDGSTYYADSVKGRFTISRDNAKNTVYLQMKSLKPEDTAVYYCAARDYPFPYAMNYWGQGTQVTVSS | low polyreactivity
QVQLVESGGGLVQAGGSLRLSCAASGRTFYLYTMGWYIQAPGKERELVAAISRGGRTYADSVKGRFTISRDNAKNTVYLQMNSLKPEDTAVYYCAAESVYHGWSYQHGKGDYWGQGTQVTVSS | low polyreactivity
QVQLVESGGGLVQAGGSLRLSCAASGRTFYNAMGWYRQAPGKERELVAAITTGGGTKYADSVKGRFTISRDNAKNTVYLQMNSLKPEDTAVYYCNAYRQYRYDYWGQGTQVTVSS | low polyreactivity
QVQLVESGGGLVQAGGSLRLSCAASGRTFYNYAMGWYRQAPGKERELVATITGRGGRTFYADSVKGRFTISRDNAKNTVYLQMNSLKPEDTAVYYCDAYRSASPYYTLYVEHDYWGQGTQVTVSS | low polyreactivity
QVQLVESGGGLVQAGGSLRLSCAASGRTFYPNAMGWYRQAPGKERELVAAISLSGTRTNYADSVKGRFTISRDNAKNTVYLQMNSLKPEDTAVYYCAARYGNFDGRNYYWGQGTQVTVSS | high polyreactivity
QVQLVESGGGLVQAGGSLRLSCAASGRTFYPYAMGWYRKAPGKERELVAAITSDGSTNYADSVKGRFTISRDNAKNTVYLQMNSLKPEDTAVYYCATAGYSWVSYDYWGQGTQVTVSS | low polyreactivity

Sequence | polyreactivity (PSR sort gate)
QVQLVESGGGLVQAGGSLRLSCAASGRTFYPYAMGWYRQAPGKERELVARISASGGSTYYADSVKGRFTISRDNAKNTVYLQMNSLKPEDTAVYYCARESFWRSLMDYWGQGTQVTVSS | high polyreactivity
QVQLVESGGGLVQAGGSLRLSCAASGRTFYQYAMGWYRQAPGKERELVAAISRRGGTTYYADSVKGRFTISRDNAKNTVYLQMNSLKPEDTAVYYCAASSLPAGEMYYWGQGTQVTVSS | high polyreactivity
QVQLVESGGGLVQAGGSLRLSCAASGRTFYQYDMGWYRQAPGKERDLVAAIDWSGGSTYYADSVKGRFTISRDNAKNTVYLQMNSLKPEDTAVYYCNADAYPHPVVGYDYWGQGTQVTVSS | low polyreactivity
QVQLVESGGGLVQAGGSLRLSCAASGRTFYQYDMGWYRQEPGKERAFVADIDWSGGSTYYADSVKGRFTISRDNAKNTVYLQMNSLKPEDTAVYYCNADAYPHPVVGYDYWGQGTQVTVSS | low polyreactivity
QVQLVESGGGLVQAGGSLRLSCAASGRTFYRNAMGWYRQAPGKERELVAAISQRGGRTYYADSVKGRFTISRDNAKNSVYLQMNSLKPEDTAVYYCAASPIYPVYRRHGYWGQGTQVTVSS | high polyreactivity
QVQLVESGGGLVQAGGSLRLSCAASGRTFYRNAMGWYRQAPGKERELVAAISSGGSTTYADSVKGRFTISRDNAKNTVYLQMNSLKPEDTAVYYCAARSHAGSVSPRLKEYDYWGQGTQVTVSS | low polyreactivity
QVQLVESGGGLVQAGGSLRLSCAASGRTFYRNAMGWYRQAPGKERELVAAISWSGGRTFYADSVKGRFTISRDNAKNTVYLQMNSLKPEDTAVYYCAKTYTTPGYYRYDYWGQGTQVTVSS | high polyreactivity
QVQLVESGGGLVQAGGSLRLSCAASGRTFYRNAMGWYRQAPGKERELVAAITSSGASTYYADSVKGRFTISRDNAKNTVYLQMNSLKPEDTAVYYCAAKYVYSVGNYRYDYWGQGTQVTVSS | low polyreactivity
QVQLVESGGGLVQAGGSLRLSCAASGRTFYRNAMGWYRQAPGKERELVATLNSGGSTHYADSVKGRFTISRDNAKNTVYLQMNSLKPEDTAVYYCAARSPSYRGSLSYYWGQGTQVTVSS | high polyreactivity
QVQLVESGGGLVQAGGSLRLSCAASGRTFYRNARGWYRQAPGKERELVAVISSSGVRTYYADSVKGRFTISRDNAKNTVYLQRNSQKPEDTAVYYCAADSNSYYRGFDYWGQGTQVTVSS | high polyreactivity
QVQLVESGGGLVQAGGSLRLSCAASGRTFYRNVMGWYRQAPGKVRELVAVITSGGRTNYADSVKGRFTISRDNAKNTVYLQMNSLKPEDTAVYSCNTALSSRSNKMYYWGQGTQVTVSS | high polyreactivity
QVQLVESGGGLVQAGGSLRLSCAASGRTFYRYAMGCYRQAPGKERELVAAISWRGGSTNYADSVKGRFTISRDNAKNTVYLQMNSLKPEDTAVYYCNAKFFLPATTRYYYWGQGTQVTVSS | high polyreactivity
QVQLVESGGGLVQAGGSLRLSCAASGRTFYRYAMGWYRQAPGKERELVAAITASGGSTYYADSVKGRFTISRDNAKNTVYLQMNSLKPEDTAVYYCAKGGKSRYSTWHGDYWGQGTQVTVSS | high polyreactivity
QVQLVESGGGLVQAGGSLRLSCAASGRTFYRYAMGWYRQAPGKERELVAAITWSGGSTYYADSVKGRFTTSRDNAKNTVYLQMNSLKPEDTAVYYCAADAALITYYGWADMYYWGQGTQVTVSS | low polyreactivity
QVQLVESGGGLVQAGGSLRLSCAASGRTFYRYAMGWYRQAPGKERELVARIRSGGSTNYADSVKGRFTISRDNAKNTVYLQMNSLKPEDTAVYYCAVDDAYPDRYDYWGQGTQVTVSS | high polyreactivity
QVQLVESGGGLVQAGGSLRLSCAASGRTFYRYAMGWYRQAPGKEREYVASITRGGGITYYADSVKGRFTISRDNAKNTVYLQMNSLKPEDSAVYYCAARQYGPRYTFYYWGQGTQVTVSS | high polyreactivity
QVQLVESGGGLVQAGGSLRLSCAASGRTFYRYTMGWYRQAPGKERQLVAGISWRGGTTYYADSVKGRFTISRDNAKNTVYLQMNSLKPEDTAVYYCAAKAGYRYGSLAYYKYDYWGLGTQVTVSS | high polyreactivity
QVQLVESGGGLVQAGGSLRLSCAASGRTFYSNAMGWYRESPGKERELVAAISRSGGTTYYADSVKGRFTISRDHAKNTVSLLMNSLKPEDTAVYYCNTLRYGTTGKYDYWGQGTQVTVSS | high polyreactivity
QVQLVESGGGLVQAGGSLRLSCAASGRTFYSNAMGWYRQAPGKERELVAAISYRGGRTYYADSVKGRFTISRDNAKNTVYLQMNSLKPEDTAVYYSAADAYVLFYGDWYECDYWGQGTQVTVSS | high polyreactivity
QVQLVESGGGLVQAGGSLRLSCAASGRTFYSNAMGWYRQPPGKERELVAAIRRSGGSTYYADSVKGRFTISRDNAKNTVYLQMNSLKPEDTAVYYCNAPHHRYDWGQGTQVTVSS | high polyreactivity
QVQLVESGGGLVQAGGSLRLSCAASGRTFYSYAMGGYRQAPGKERELVARITWSGGTYYADSVKGRFTISRDNAKNTVYLQMNSLKPEDTAVYYCAAKYWKWYHYGFGYWGQGTQVTVSS | high polyreactivity
